According to patent US20050032681A1 (TEMPLE UNIV OF THE COMMONWEALTH SYSTEM OF HIGHER EDUCATION …, published 2005):

T1: human neutrophil elastase (human, UniProt P08246 30-247, limits assumed)
T1 sequence (looked up): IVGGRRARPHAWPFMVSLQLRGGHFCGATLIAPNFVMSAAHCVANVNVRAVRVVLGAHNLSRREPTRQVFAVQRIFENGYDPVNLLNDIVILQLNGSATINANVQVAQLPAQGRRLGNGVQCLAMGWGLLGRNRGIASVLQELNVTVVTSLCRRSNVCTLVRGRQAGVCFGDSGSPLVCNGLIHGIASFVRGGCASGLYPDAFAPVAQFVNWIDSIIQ


Experiments:
human α-thrombin = human α-thrombin (human, UniProt P00734 328-363; P00734 364-622); assay: pseudo-first-order thrombin inhibition kinetics, residual activity with S-2238, 25 C, polybrene
Procedure: (§1) Forty μL aliquots of ATIII samples at varying concentrations (450 nM, 300 nM, 150 nM) in PNE-PEG plus 50 μL polybrene (to neutralize any contaminating heparin) were preloaded into quadruplicate wells of a low-binding 96-well assay plate (Corning). The plate was maintained at 25° C., and 20 μL aliquots of 30 nM human thrombin or 15 nM human factor Xa were added to each of the four wells at successive 5 minute intervals. Reactions were quenched 5 minutes after addition of enzyme to the last of the wells by the adding 100 μL of 1.5 mM chromogenic substrate (S-2238 for thrombin; S-2765 for factor Xa). Residual enzyme activity was measured on a BioTek ELS11X kinetic plate reader controlled by a Macintosh SE with Deltasoft software. Initial rates of chromogenic substrate cleavage were monitored at 405 nm.

[1] = target: T1, human neutrophil elastase; assay: cell-based or functional assay
human factor Xa = target: T2, human factor Xa (human, UniProt P00742 41-179; P00742 235-488, limits assumed); assay: pseudo-first-order factor Xa inhibition kinetics, residual activity with S-2765, 25 C, polybrene
T2 construct: that the active enzyme has two chains is from general knowledge
T2 sequence (P00742 41-179 limits assumed, chain 1 of 2): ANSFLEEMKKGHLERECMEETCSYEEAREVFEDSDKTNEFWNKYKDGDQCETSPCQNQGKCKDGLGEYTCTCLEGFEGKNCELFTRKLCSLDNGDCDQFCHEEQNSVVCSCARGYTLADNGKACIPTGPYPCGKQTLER
T2 sequence (P00742 235-488 limits assumed, chain 2 of 2): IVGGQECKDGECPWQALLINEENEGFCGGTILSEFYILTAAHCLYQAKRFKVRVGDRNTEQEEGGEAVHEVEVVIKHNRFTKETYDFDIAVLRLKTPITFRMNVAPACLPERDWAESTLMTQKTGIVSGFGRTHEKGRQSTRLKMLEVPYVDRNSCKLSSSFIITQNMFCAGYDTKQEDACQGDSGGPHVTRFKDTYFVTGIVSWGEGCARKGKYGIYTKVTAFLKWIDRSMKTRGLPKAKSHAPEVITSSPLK
Procedure: as §1

Binder | kapp (apparent second-order rate constant of association) (human α-thrombin) [M⁻¹ s⁻¹] | HNE resistance T1/2, min [1] [min] | kapp (apparent second-order rate constant of association) (human factor Xa) [M⁻¹ s⁻¹]
5EA modified ATIII (on human ATIII.N135A background) (other, Recombinant, baculovirus/Sf9, N135A background; also called AT.5EA) HGSPVDICTAKPRDIPMNPMCIYRSPEKKATEDEGSEQKIPEATNRRVWELSKANSRFATTFYQHLADSKNDNDNIFLSPLSISTAFAMTKLGACNDTLQQLMEVFKFDTISEKTSDQIHFFFAKLNCRLYRKAAKSSKLVSANRLFGDKSLTFNETYQDISELVYGAKLQPLDFKENAEQSRAAINKWVSNKTEGRITDVIPSEAINELTVLVLVNTIYFKGLWKSKFSPENTRKELFYKADGESCSASMMYQEGKFRYRRVAEGTQVLELPFKGDDITMVLILPKPEKSLAKVEKELTPEVLQEWLDELEEMMLVVHMPRFRIEDGFSLKEQLQDMGLVDLFSPEKSKLPGIVAEGRDDLYVSDAFHKAFLEVNEEGSEAAASTAVEAAGRSLNPNRVTFKANRPFLVFIREVPLNTIIFMGRVANPCVK | 600 | 3.2 | 3100
F2A′ modified ATIII (on human ATIII.N135A background) (other) HGSPVDICTAKPRDIPMNPMCIYRSPEKKATEDEGSEQKIPEATNRRVWELSKANSRFATTFYQHLADSKNDNDNIFLSPLSISTAFAMTKLGACNDTLQQLMEVFKFDTISEKTSDQIHFFFAKLNCRLYRKAAKSSKLVSANRLFGDKSLTFNETYQDISELVYGAKLQPLDFKENAEQSRAAINKWVSNKTEGRITDVIPSEAINELTVLVLVNTIYFKGLWKSKFSPENTRKELFYKADGESCSASMMYQEGKFRYRRVAEGTQVLELPFKGDDITMVLILPKPEKSLAKVEKELTPEVLQEWLDELEEMMLVVHMPRFRIEDGFSLKEQLQDMGLVDLFSPEKSKLPGIVAEGRDDLYVSDAFHKAFLEVNEEGSEAAASTQTPPNGRSLNPNRVTFKANRPFLVFIREVPLNTIIFMGRVANPCVK | – | 2.6 | –
13 A modified ATIII (on human ATIII.N135A background) (other, Recombinant, baculovirus/Sf9, N135A background; also called AT.13.A) HGSPVDICTAKPRDIPMNPMCIYRSPEKKATEDEGSEQKIPEATNRRVWELSKANSRFATTFYQHLADSKNDNDNIFLSPLSISTAFAMTKLGACNDTLQQLMEVFKFDTISEKTSDQIHFFFAKLNCRLYRKAAKSSKLVSANRLFGDKSLTFNETYQDISELVYGAKLQPLDFKENAEQSRAAINKWVSNKTEGRITDVIPSEAINELTVLVLVNTIYFKGLWKSKFSPENTRKELFYKADGESCSASMMYQEGKFRYRRVAEGTQVLELPFKGDDITMVLILPKPEKSLAKVEKELTPEVLQEWLDELEEMMLVVHMPRFRIEDGFSLKEQLQDMGLVDLFSPEKSKLPGIVAEGRDDLYVSDAFHKAFLEVNEEGSEAAASTAVEGAGRSLNPNRVTFKANRPFLVFIREVPLNTIIFMGRVANPCVK | 200 | 2.1 | 500
Bb.C modified ATIII (on human ATIII.N135A background) (other, Sf9-expressed glycoprotein: N-glycans expected at Asn 96, 155 and 192 (written N); Asn135 site removed by N135A.) HGSPVDICTAKPRDIPMNPMCIYRSPEKKATEDEGSEQKIPEATNRRVWELSKANSRFATTFYQHLADSKNDNDNIFLSPLSISTAFAMTKLGACNDTLQQLMEVFKFDTISEKTSDQIHFFFAKLNCRLYRKAAKSSKLVSANRLFGDKSLTFNETYQDISELVYGAKLQPLDFKENAEQSRAAINKWVSNKTEGRITDVIPSEAINELTVLVLVNTIYFKGLWKSKFSPENTRKELFYKADGESCSASMMYQEGKFRYRRVAEGTQVLELPFKGDDITMVLILPKPEKSLAKVEKELTPEVLQEWLDELEEMMLVVHMPRFRIEDGFSLKEQLQDMGLVDLFSPEKSKLPGIVAEGRDDLYVSDAFHKAFLEVNEEGSEAAASEEGEASGRSLNPNRVTFKANRPFLVFIREVPLNTIIFMGRVANPCVK | – | 437 | –
13.C modified ATIII (on human ATIII.N135A background) (other, Recombinant, baculovirus/Sf9, N135A background; also called AT.13.C) HGSPVDICTAKPRDIPMNPMCIYRSPEKKATEDEGSEQKIPEATNRRVWELSKANSRFATTFYQHLADSKNDNDNIFLSPLSISTAFAMTKLGACNDTLQQLMEVFKFDTISEKTSDQIHFFFAKLNCRLYRKAAKSSKLVSANRLFGDKSLTFNETYQDISELVYGAKLQPLDFKENAEQSRAAINKWVSNKTEGRITDVIPSEAINELTVLVLVNTIYFKGLWKSKFSPENTRKELFYKADGESCSASMMYQEGKFRYRRVAEGTQVLELPFKGDDITMVLILPKPEKSLAKVEKELTPEVLQEWLDELEEMMLVVHMPRFRIEDGFSLKEQLQDMGLVDLFSPEKSKLPGIVAEGRDDLYVSDAFHKAFLEVNEEGSEAAASTELEGAGRSLNPNRVTFKANRPFLVFIREVPLNTIIFMGRVANPCVK | – | 10.1 | 5100
13.D modified ATIII (on human ATIII.N135A background) (other, Recombinant, baculovirus/Sf9, N135A background; also called AT.13.D) HGSPVDICTAKPRDIPMNPMCIYRSPEKKATEDEGSEQKIPEATNRRVWELSKANSRFATTFYQHLADSKNDNDNIFLSPLSISTAFAMTKLGACNDTLQQLMEVFKFDTISEKTSDQIHFFFAKLNCRLYRKAAKSSKLVSANRLFGDKSLTFNETYQDISELVYGAKLQPLDFKENAEQSRAAINKWVSNKTEGRITDVIPSEAINELTVLVLVNTIYFKGLWKSKFSPENTRKELFYKADGESCSASMMYQEGKFRYRRVAEGTQVLELPFKGDDITMVLILPKPEKSLAKVEKELTPEVLQEWLDELEEMMLVVHMPRFRIEDGFSLKEQLQDMGLVDLFSPEKSKLPGIVAEGRDDLYVSDAFHKAFLEVNEEGSEAAASTALEGAGRSLNPNRVTFKANRPFLVFIREVPLNTIIFMGRVANPCVK | – | 2.6 | 3300
7EVEA modified ATIII (on human ATIII.N135A background) (other, Recombinant, baculovirus/Sf9, N135A background; also called AT.7EVEA) HGSPVDICTAKPRDIPMNPMCIYRSPEKKATEDEGSEQKIPEATNRRVWELSKANSRFATTFYQHLADSKNDNDNIFLSPLSISTAFAMTKLGACNDTLQQLMEVFKFDTISEKTSDQIHFFFAKLNCRLYRKAAKSSKLVSANRLFGDKSLTFNETYQDISELVYGAKLQPLDFKENAEQSRAAINKWVSNKTEGRITDVIPSEAINELTVLVLVNTIYFKGLWKSKFSPENTRKELFYKADGESCSASMMYQEGKFRYRRVAEGTQVLELPFKGDDITMVLILPKPEKSLAKVEKELTPEVLQEWLDELEEMMLVVHMPRFRIEDGFSLKEQLQDMGLVDLFSPEKSKLPGIVAEGRDDLYVSDAFHKAFLEVNEEGSEAAASTEVEAAGRSLNPNRVTFKANRPFLVFIREVPLNTIIFMGRVANPCVK | 600 | 5.6 | 4800
Aa modified ATIII (on human ATIII.N135A background) (other, Recombinant, baculovirus/Sf9, N135A background; also called AT.Aa) HGSPVDICTAKPRDIPMNPMCIYRSPEKKATEDEGSEQKIPEATNRRVWELSKANSRFATTFYQHLADSKNDNDNIFLSPLSISTAFAMTKLGACNDTLQQLMEVFKFDTISEKTSDQIHFFFAKLNCRLYRKAAKSSKLVSANRLFGDKSLTFNETYQDISELVYGAKLQPLDFKENAEQSRAAINKWVSNKTEGRITDVIPSEAINELTVLVLVNTIYFKGLWKSKFSPENTRKELFYKADGESCSASMMYQEGKFRYRRVAEGTQVLELPFKGDDITMVLILPKPEKSLAKVEKELTPEVLQEWLDELEEMMLVVHMPRFRIEDGFSLKEQLQDMGLVDLFSPEKSKLPGIVAEGRDDLYVSDAFHKAFLEVNEEGSEAAASTAEGGGGRSLNPNRVTFKANRPFLVFIREVPLNTIIFMGRVANPCVK | 400 | 9.1 | 400
13.B modified ATIII (on human ATIII.N135A background) (other, Recombinant, baculovirus/Sf9, N135A background; also called AT.13.B) HGSPVDICTAKPRDIPMNPMCIYRSPEKKATEDEGSEQKIPEATNRRVWELSKANSRFATTFYQHLADSKNDNDNIFLSPLSISTAFAMTKLGACNDTLQQLMEVFKFDTISEKTSDQIHFFFAKLNCRLYRKAAKSSKLVSANRLFGDKSLTFNETYQDISELVYGAKLQPLDFKENAEQSRAAINKWVSNKTEGRITDVIPSEAINELTVLVLVNTIYFKGLWKSKFSPENTRKELFYKADGESCSASMMYQEGKFRYRRVAEGTQVLELPFKGDDITMVLILPKPEKSLAKVEKELTPEVLQEWLDELEEMMLVVHMPRFRIEDGFSLKEQLQDMGLVDLFSPEKSKLPGIVAEGRDDLYVSDAFHKAFLEVNEEGSEAAASTEVEGAGRSLNPNRVTFKANRPFLVFIREVPLNTIIFMGRVANPCVK | – | 7.6 | 2800
Bb.D modified ATIII (on human ATIII.N135A background) (other, Recombinant, baculovirus/Sf9, N135A background; also called AT.Bb.D) HGSPVDICTAKPRDIPMNPMCIYRSPEKKATEDEGSEQKIPEATNRRVWELSKANSRFATTFYQHLADSKNDNDNIFLSPLSISTAFAMTKLGACNDTLQQLMEVFKFDTISEKTSDQIHFFFAKLNCRLYRKAAKSSKLVSANRLFGDKSLTFNETYQDISELVYGAKLQPLDFKENAEQSRAAINKWVSNKTEGRITDVIPSEAINELTVLVLVNTIYFKGLWKSKFSPENTRKELFYKADGESCSASMMYQEGKFRYRRVAEGTQVLELPFKGDDITMVLILPKPEKSLAKVEKELTPEVLQEWLDELEEMMLVVHMPRFRIEDGFSLKEQLQDMGLVDLFSPEKSKLPGIVAEGRDDLYVSDAFHKAFLEVNEEGSEAAASEEGEGSGRSLNPNRVTFKANRPFLVFIREVPLNTIIFMGRVANPCVK | 100 | > 45 | –
